According to patent publication US20260250410A1 (SICHUAN HUIYU PHARMACEUTICAL, published 2026):
Where a chain is given by its changes, count along the chain named.

Key:
[1] = target: T1, human CDCP1 on tumor cells (human, UniProt Q9H5V8 30-836); assay: flow cytometry, MDA-MB-231 cells
T1 construct: whole, on cells; cell line is named under assay or readout
T1 sequence (looked up): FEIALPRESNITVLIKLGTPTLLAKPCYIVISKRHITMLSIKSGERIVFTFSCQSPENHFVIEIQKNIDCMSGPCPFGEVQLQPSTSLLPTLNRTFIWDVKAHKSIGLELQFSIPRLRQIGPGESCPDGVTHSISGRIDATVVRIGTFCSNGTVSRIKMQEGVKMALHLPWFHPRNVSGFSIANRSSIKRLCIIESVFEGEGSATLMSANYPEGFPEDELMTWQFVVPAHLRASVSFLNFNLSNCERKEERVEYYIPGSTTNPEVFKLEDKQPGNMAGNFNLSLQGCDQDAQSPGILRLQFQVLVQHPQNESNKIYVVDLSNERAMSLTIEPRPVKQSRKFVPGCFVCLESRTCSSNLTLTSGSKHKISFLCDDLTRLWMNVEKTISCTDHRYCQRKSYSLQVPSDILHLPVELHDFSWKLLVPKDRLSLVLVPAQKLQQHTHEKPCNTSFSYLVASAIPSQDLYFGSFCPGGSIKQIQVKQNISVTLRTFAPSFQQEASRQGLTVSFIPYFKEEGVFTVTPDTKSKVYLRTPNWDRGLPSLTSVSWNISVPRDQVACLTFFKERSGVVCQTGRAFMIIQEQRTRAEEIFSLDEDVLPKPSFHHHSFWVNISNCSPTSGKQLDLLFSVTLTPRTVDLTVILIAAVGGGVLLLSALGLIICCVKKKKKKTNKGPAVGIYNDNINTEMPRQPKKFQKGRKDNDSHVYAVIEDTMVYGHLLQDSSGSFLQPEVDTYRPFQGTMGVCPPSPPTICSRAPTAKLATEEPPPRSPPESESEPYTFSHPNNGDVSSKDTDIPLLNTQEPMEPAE
Description: Referring to the method of Example 4, MDA-MB-231 cells were taken and subjected to digestion with 5 mM EDTA, 2×10⁴ tumor cells were added respectively per well, and 50 μL (PBS+2% FBS) were added; after blocking at room temperature with Fc blocker for 10 mins, an anti-CDCP1 humanized antibody at a final concentration of 200 nM was added. The obtained mixture was subjected to a 3-fold serial dilution across 8 concentration points, incubated at 4° C. for 30 mins, centrifuged and washed, and then a secondary antibody (PE anti-human IgG Fc Antibody, Biolegend, 410708) was added, then detection was performed using a flow cytometer. Geo-MFI (geometric mean fluorescence signal value) was used as the preliminary signal of antibody-cell binding, curve fitting was performed using graphpad, and the binding capacity of antibody to cells was calculated.

HuCDCP1-B = target: T2, HuCDCP1-B (human, UniProt Q9H5V8 343-667); assay: SPR (Caterra), antigen immobilized
T2 construct: range 343-667; expressed in HEK-293T, purified by Fc/his tag; also called human CDCP1-B; membrane-proximal region of CDCP1; not shown: Fc or his tag
T2 sequence (looked up): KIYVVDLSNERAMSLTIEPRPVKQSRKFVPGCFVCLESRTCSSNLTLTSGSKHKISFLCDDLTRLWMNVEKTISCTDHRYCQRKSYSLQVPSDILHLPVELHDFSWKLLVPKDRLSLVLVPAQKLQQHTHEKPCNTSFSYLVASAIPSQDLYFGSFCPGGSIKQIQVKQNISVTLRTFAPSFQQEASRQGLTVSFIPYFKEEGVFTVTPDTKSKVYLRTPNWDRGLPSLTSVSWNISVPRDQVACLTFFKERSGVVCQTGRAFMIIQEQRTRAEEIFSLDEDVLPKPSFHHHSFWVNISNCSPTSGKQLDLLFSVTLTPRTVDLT
Description: (§1) The humanized anti-CDCP1 antibodies obtained from Example 11 were subjected to gene cloning, constructed into pTT5 expression vector for a small amount of expression in CHO cells (Expi-CHOS: Gibco A29127), and purified with an Fc affinity column (AT Protein A Diamond Plus. No. AA402312). Antibody purity was analyzed by HPLC and determined by Nanodrop. High-throughput affinity assay was carried out for a small amount of antibodies by Caterra.
(§2) Further, Partial anti-CDCP1 humanized antibodies were selected for expression, and then the affinity of the antibodies to the antigens Hu-CDCP1-A, Hu-CDCP1-B, Cyno-CDCP1, and Ms-CDCP1 was detected according to the above affinity detection method.

CynoCDCP1 = target: T3, CynoCDCP1 (Macaca fascicularis, UniProt A0A2K5VLA8 30-667); assay: SPR (Caterra), antigen immobilized
T3 construct: extracellular domain; also called Macaca fascicularis CDCP1; monkey CDCP1; not shown: Fc or his tag
T3 sequence: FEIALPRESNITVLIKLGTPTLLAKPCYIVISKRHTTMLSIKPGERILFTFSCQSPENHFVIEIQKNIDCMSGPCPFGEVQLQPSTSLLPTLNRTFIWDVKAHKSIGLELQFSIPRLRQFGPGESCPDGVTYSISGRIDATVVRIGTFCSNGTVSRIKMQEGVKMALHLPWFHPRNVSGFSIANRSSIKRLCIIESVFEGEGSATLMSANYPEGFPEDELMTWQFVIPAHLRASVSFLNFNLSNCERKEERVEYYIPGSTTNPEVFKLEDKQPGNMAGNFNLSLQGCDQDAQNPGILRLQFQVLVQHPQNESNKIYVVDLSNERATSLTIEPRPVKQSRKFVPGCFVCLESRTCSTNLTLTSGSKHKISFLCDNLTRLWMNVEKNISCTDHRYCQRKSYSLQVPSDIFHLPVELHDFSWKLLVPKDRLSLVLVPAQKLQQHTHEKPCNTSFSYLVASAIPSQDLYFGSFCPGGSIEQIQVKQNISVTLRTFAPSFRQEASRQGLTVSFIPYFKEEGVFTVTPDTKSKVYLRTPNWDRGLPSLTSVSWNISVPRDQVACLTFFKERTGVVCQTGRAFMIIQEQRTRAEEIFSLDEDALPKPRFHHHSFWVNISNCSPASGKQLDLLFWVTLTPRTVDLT
Description: as §1, §2

B1: 1CP-124 (antibody, human IgG1, kappa, V domains shown)
VH: QVQLVQSGAEVKKPGASVKVSCKASGYNFISYWLHWVRQAPGQGLEWMGGIYPGNTDTTYNQKFKGRVTMTRDTSTSTVYMELSSLRSEDTAVYYCIRYDYDRGMDYWGQGTLVTVSS
VL: DIQMTQSPSSLSASVGDRVTITCRASEDIYYRLAWYQQKPGKAPKLLISGATALETGVPSRFSGSGSGKDYTFTISSLQPEDIATYYCQHYWNIPWTFGQGTKVEIKR
notes: humanized 3C11, human IgG1 kappa
EC50 [1]: 0.38 nM
Kd (HuCDCP1-B): 100 nM
Kd (CynoCDCP1): 24.2 nM

B2: 1CP-129 (antibody, human IgG1, kappa, V domains shown)
VH: B1 VH with R72A
VL: B1 VL with F73L
notes: as for B1
EC50 [1]: 0.34 nM
Kd (HuCDCP1-B): 157 nM
Kd (CynoCDCP1): 53.8 nM

B3: 1CP-125 (antibody, human IgG1, kappa, V domains shown)
VH: B1 VH with R72A
VL: B1 VL
notes: as for B1
EC50 [1]: 0.95 nM
Kd (HuCDCP1-B): 55.1 nM
Kd (CynoCDCP1): 2.27 nM

B4: 1CP-128 (antibody, human IgG1, kappa, V domains shown)
VH: B1 VH
VL: B1 VL with F73L
notes: as for B1
EC50 [1]: 0.32 nM
Kd (HuCDCP1-B): 109 nM
Kd (CynoCDCP1): 47.5 nM

B5: 1CP-152 (antibody, human IgG1, kappa, V domains shown)
VH: EVQLVESGGGLVQPGRSLRLSCTTSGLTFTHYHMSWVRQAPGKGLEWVAIIRNKAYGYTTDYSASVRGRFTISRDDSKSILYLQMNSLKTEDTAVYYCVREGGYGYDGTFAYWGQGTLVTVSS
VL: DIQMTQSPSSLSASVGDRVTITCRASESVDNYGISFMNWFQQKPGQAPKLLIYAASNQGSGVPSRFSGSGSGTDFTLTISSMQPEDFATYYCQQSKEVPRTFGGGTKVEIKR
notes: humanized 8C9, human IgG1 kappa
EC50 [1]: 2.82 nM
Kd (HuCDCP1-B): 110 nM
Kd (CynoCDCP1): 2.9 nM

B6: 1CP-157 (antibody, human IgG1, kappa, V domains shown)
VH: B5 VH with L45P
VL: B5 VL with A47P
notes: as for B5
EC50 [1]: 2.5 nM
Kd (HuCDCP1-B): 359 nM
Kd (CynoCDCP1): 2.6 nM

B7: 1CP-117 (antibody, human IgG1, kappa, V domains shown)
VH: QVQLVQSGSELKKPGASVKVSCKASGYTLTDFSMHWVRQAPGQGLEWMGWINTETGAPTYADDFKGRFVLSLDTSVSTAYLQISSLKAEDTAVYYCSRGRDYDPHFDYWGQGTLVTVSS
VL: EIVLTQSPATLSLSPGERATLSCRASQSISDFLHWYQQKPGQSPRLLIKYASQSISGIPARFSGSGSGSDFTLTISSVEPEDFAVYYCQSAHSFPYTFGQGTKLEIKR
notes: humanized 8E5, human IgG1 kappa
EC50 [1]: 1.3 nM
Kd (HuCDCP1-B): 182 nM
Kd (CynoCDCP1): 1.84 nM

B8: 1CP-121 (antibody, human IgG1, kappa, V domains shown)
VH: B7 VH
VL: B7 VL with P40S
notes: as for B7
EC50 [1]: 1.37 nM
Kd (HuCDCP1-B): 131 nM
Kd (CynoCDCP1): 1.51 nM
